Experimental data as given in the supplement of paper PMC7877785.
± gives the uncertainty stated by the source.

Test: self-splicing fitness, log relative to wild type (ln ratio); higher = more splicing; Tetrahymena group I intron in knt gene, E. coli kanamycin selection, DiMSum; sequences stand for … in CUCUCU…GGAGGGAAAAGUUAUCAGGCAUGCACCUGGUAGCUAGUCUUUAAACCAAUAGAUUGCAUCGGUUUAAAAGGCAAGACCGUCAAAUUGCGGGAAAGGGGUCAACAGCCGUUCAGUACCAAGUCUCAGGGGAAACUUUGAGAUGGCCUUGCAAAGGGUAUGGUAAUAAGCUGACGGACAUGGUCCUAACCACGCAGCCAAGUCCUAAGUCAACAGAUCUUCUGUUGAUAUGGAUGCAGUUCACAGACUAAAUGUCGGUCGGGGAAGAUGUAUUCUUCUCAUAAGAUAUAGUCGGACCUCUCCUUAAUGGGAGCUAGCGGAUGAAGUGAUGCAACACUGGAGCCGCUGGGAACUAAUUUGUAUGCGAAAGUAUAUUGAUUAGUUUUGGAGUACUCGUGGUCG
How it was run: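 Pooled colonies went to amplicon sequencing on an Illumina HiSeq 2500 after six replicate transformations. The plates were LB agar with 100 μg/mL carbenicillin, 50 μM IPTG and 0.2% rhamnose, with or without 25 μg/mL kanamycin, incubated overnight at 37°C or 30°C. The E. coli BL21(DE3) library had all eight P1ex-region intron nucleotides randomised, the intron placed in the knt kanamycin-resistance gene on pET-22b(+). DiMSum fitness is the error-weighted combination of replicate fold changes, kanamycin against none, normalised to wild type.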

Sequence	self-splicing fitness (ln) (30 °C)	self-splicing fitness (ln) (37 °C)
AAGCAGCAAUAUUACGCCUA	0.0257 ± 0.11	-0.183 ± 0.13
AGCGAGCAAUAUUACGAUAG	-3.64 ± 0.43	-1.76 ± 0.35
GCCCAGCAAUAUUACGUCCA	-0.999 ± 0.09	-1.18 ± 0.12
CCGGAGCAAUAUUACGGGUG	-1.61 ± 0.093	-1.09 ± 0.1
GCCCAGCAAUAUUACGCGAU	-2.76 ± 0.13	0.119 ± 0.1
AGGAAGCAAUAUUACGCCGU	-1.28 ± 0.24	-0.629 ± 0.33
CAGAAGCAAUAUUACGGAAG	-1.65 ± 0.077	-1.35 ± 0.095
AAAUAGCAAUAUUACGGGUC	-3.56 ± 0.17	-3.1 ± 0.24
UAGAAGCAAUAUUACGCAUA	-1.55 ± 0.17	-1.36 ± 0.12
CGGGAGCAAUAUUACGCCGU	-3.46 ± 0.47	
UUCGAGCAAUAUUACGUGAU	-1.8 ± 0.2	-1.35 ± 0.21
AAUUAGCAAUAUUACGUUAG	-4.03 ± 0.28	-3.13 ± 0.26
UCCAAGCAAUAUUACGACUC	-3.4 ± 0.29	-2.62 ± 0.24
AACUAGCAAUAUUACGAGUU	-3.44 ± 0.24	-1.89 ± 0.22
AACGAGCAAUAUUACGUCUG	-3.17 ± 0.2	-1.63 ± 0.16
ACGGAGCAAUAUUACGACCA	-3.73 ± 0.4	-1.08 ± 0.24
UGUGAGCAAUAUUACGGACG	-0.792 ± 0.12	-0.0879 ± 0.18
UUGGAGCAAUAUUACGGAGC	-1.47 ± 0.38	
AGAUAGCAAUAUUACGUGAG	-1.89 ± 0.072	-0.685 ± 0.08
UAUCAGCAAUAUUACGUAGA	-0.562 ± 0.058	-0.0988 ± 0.081
ACAAAGCAAUAUUACGUAUG	-3.01 ± 0.12	-2.13 ± 0.15
CCUGAGCAAUAUUACGCAUG	-4.37 ± 0.34	-2.27 ± 0.28
GGUGAGCAAUAUUACGAGUA	-1.41 ± 0.21	-1.69 ± 0.29
AUACAGCAAUAUUACGCCCC	-1.47 ± 0.25	0.0702 ± 0.23
CGCCAGCAAUAUUACGUAUC	-3.94 ± 0.33	-3.92 ± 0.42
AUAAAGCAAUAUUACGUUGC	-3.81 ± 0.19	-3.29 ± 0.29

Sequence	self-splicing fitness (ln) (30 °C)	self-splicing fitness (ln) (37 °C)
CGUAAGCAAUAUUACGAAUC		-2.06 ± 0.3
AAGGAGCAAUAUUACGCGUA	-3.11 ± 0.28	-1.29 ± 0.17
CUGCAGCAAUAUUACGGAAU	-5.11 ± 0.45	-2.74 ± 0.32
ACCCAGCAAUAUUACGUAUC	-2.25 ± 0.077	-1.63 ± 0.092
CUUGAGCAAUAUUACGACCA	-1.41 ± 0.32	
UCACAGCAAUAUUACGUCCG	-1.21 ± 0.086	-0.358 ± 0.098
CUGAAGCAAUAUUACGUUGG	-2.84 ± 0.13	-1.58 ± 0.13
UAGCAGCAAUAUUACGCUCU	-1.27 ± 0.087	-1.04 ± 0.088
CGUGAGCAAUAUUACGUCGA	-1.75 ± 0.29	-3.3 ± 0.3
GGAUAGCAAUAUUACGCGUG	-1.49 ± 0.087	-0.118 ± 0.08
GAUAAGCAAUAUUACGCGAA	-2.31 ± 0.093	-1.65 ± 0.11
UCGUAGCAAUAUUACGUGGG	-3.54 ± 0.24	-3.92 ± 0.28
UUCCAGCAAUAUUACGGGUA	-0.292 ± 0.08	0.0398 ± 0.088
CGAAAGCAAUAUUACGAUCG	-3.41 ± 0.43	-1.34 ± 0.29
CGUUAGCAAUAUUACGGAUA	-1.83 ± 0.37	-2.08 ± 0.31
UGAAAGCAAUAUUACGCGGA	-1.66 ± 0.13	-1.52 ± 0.13
ACCAAGCAAUAUUACGAGUC	-3.65 ± 0.2	-1.25 ± 0.15
CUUUAGCAAUAUUACGCGGC	-2.41 ± 0.35	-0.897 ± 0.17
GGUAAGCAAUAUUACGGGUU	-1.82 ± 0.076	-1.69 ± 0.11
GGGCAGCAAUAUUACGACUU	0.0195 ± 0.16	-0.0822 ± 0.19
CCCUAGCAAUAUUACGCCAU	-4.3 ± 0.42	-2.43 ± 0.39
CAUCAGCAAUAUUACGACGC	-2.37 ± 0.23	-1.23 ± 0.26
GCUAAGCAAUAUUACGCUAC	-2.37 ± 0.15	-2.44 ± 0.26
AUGAAGCAAUAUUACGUACC	-0.639 ± 0.067	0.16 ± 0.1
CGUGAGCAAUAUUACGCCAC	-1.74 ± 0.35	
AAAUAGCAAUAUUACGUCGA	-1.78 ± 0.078	-0.255 ± 0.076

Sequence	self-splicing fitness (ln) (30 °C)	self-splicing fitness (ln) (37 °C)
CAGCAGCAAUAUUACGUAAU	-2.34 ± 0.16	-1.91 ± 0.15
UCACAGCAAUAUUACGCCAA	-3.45 ± 0.44	-2.74 ± 0.38
UCGGAGCAAUAUUACGAAUG	-4.16 ± 0.36	-2.15 ± 0.27
CUUAAGCAAUAUUACGCAAC	-3.55 ± 0.27	-2.37 ± 0.26
GGAUAGCAAUAUUACGGCCG	-0.857 ± 0.18	0.103 ± 0.2
CGUCAGCAAUAUUACGCACG	-2.16 ± 0.11	-1.22 ± 0.12
UCCAAGCAAUAUUACGGCUG	-2.69 ± 0.15	-3.33 ± 0.22
GUAGAGCAAUAUUACGAACA	-2.46 ± 0.17	-0.783 ± 0.16
CGCCAGCAAUAUUACGGGAA	-2.84 ± 0.12	-1.64 ± 0.1
GACGAGCAAUAUUACGCAGG	-2.39 ± 0.2	-1.6 ± 0.26
GUAAAGCAAUAUUACGCCGC	-2.48 ± 0.3	-1.92 ± 0.35
AAGCAGCAAUAUUACGCACU	0.0285 ± 0.094	0.781 ± 0.12
GUCCAGCAAUAUUACGUGAA	0.0486 ± 0.079	0.617 ± 0.098
CGCGAGCAAUAUUACGCAAC	-2.25 ± 0.31	
AGUCAGCAAUAUUACGUAAG	-1.61 ± 0.1	-0.51 ± 0.11
CUACAGCAAUAUUACGGGAC	-2.98 ± 0.14	-2.06 ± 0.15
AAUUAGCAAUAUUACGUCAC	-3.93 ± 0.36	-2.41 ± 0.33
CAAGAGCAAUAUUACGCUCU	-3.49 ± 0.32	-1.86 ± 0.27
GACCAGCAAUAUUACGGGAG	-0.677 ± 0.053	-0.0889 ± 0.065
GUCCAGCAAUAUUACGUGUU	-1.52 ± 0.055	-0.617 ± 0.068
AGGUAGCAAUAUUACGCCAC	-3.97 ± 0.058	-2.98 ± 0.069
GAACAGCAAUAUUACGGGAC	-2.66 ± 0.085	-1.36 ± 0.085
UGUUAGCAAUAUUACGUCGU	-3.5 ± 0.33	-2.69 ± 0.23
UGCCAGCAAUAUUACGAACU	-2.14 ± 0.11	-0.854 ± 0.13
UCAUAGCAAUAUUACGUUUG	-3.04 ± 0.18	-1.84 ± 0.2
